Measured values published in US8569455B2, “Cloning, yeast expression, purification and biological activity of the extension region of the soybean 7S globulin alfa' subunit involved in HEP G2 cell cholesterol homeostasis” (Indena S.p.A., priority 2009, dated 2013).
Marks after values point to notes of the source that are not given here.

Key:
HepG2 cells [1] = assay: Uptake and degradation of 125I-LDL by HepG2 cells; assay type: cell-based, human; conditions: for Degradation % / Uptake %: % of LPDS control (100); for Degradation ng125I-LDL/mg cell protein / Uptake ng125I-LDL/mg cell protein: HepG2, 24 h preincubation in 5% LPDS, then 125I-LDL 7.5 mg/L for 5 h, mean ± SD
Text: The established human hepatoma cell line (HepG2) was obtained from American Type Culture Collection (Rockville, Md.). Eagle's minimum essential medium (MEM), fetal calf serum, trypsin-EDTA (1×), penicillin (10^5 U/L), streptomycin (100 g/L), tricine buffer (1 mmol/L, pH 7.4) and non-essential amino acid solutions (100×) were from GIBCO (Madison, Wis.). Petri dishes were from COSTAR (Cambridge, Mass.). Filters were from Millipore (Bedford, Mass.). […] Sephadex G25 columns (PD10) were from Pharmacia Biotech (Uppsala, Sweden). LDH and MTT kit were from Sigma Diagnostics (Milano-Italy). All other chemicals were of analytical grade from Merck (Darmstadt, Germany). […] For experiments designed to evaluate the LDL receptor modulation, cells were seeded in 35 mm plastic dishes (3-5×10^5 cells) and used just before reaching confluence. In all cell culture experiments, the medium was changed every 2-3 days. In order to assess cell viability, culture media from cells exposed to eα′ at different concentrations were tested by methyltetrazolium salts (MTT) assay, essentially as described in ref. 9. Cell enzyme leakage was determined by measuring lactate dehydrogenase (LDH) activity, using a kinetic (LDH/LD) diagnostic kit (Sigma Diagnostics). […] Human lipoprotein deficient serum (LPDS) was prepared as previously described.
Monolayers of cells were preincubated at 37° C. for 24 h in MEM supplemented with 5 g/100 g LPDS to up-regulate the LDL-receptors, in the presence/absence of eα′ at different concentrations listed in Table or 3.5 μmol/L α′ purified subunit or 1.0 μmol/L simvastatin.
Differences in cell uptake and degradation of LDL after cell incubation with eα′ at different concentrations were determined by ANOVA followed by Dunnett's test. Values are expressed as means±SD; P values<0.05 were considered as statistically significant.

LDL-R = conditions: Hep G2 cells exposed to the peptide at 100 μM; cited from earlier work
HepG2 cells [2] = assay: Cell viability by methyltetrazolium salts (MTT) assay; assay type: cell-based, human; conditions: all concentrations tested; data not shown
Text: (§1) The established human hepatoma cell line (HepG2) was obtained from American Type Culture Collection (Rockville, Md.). Eagle's minimum essential medium (MEM), fetal calf serum, trypsin-EDTA (1×), penicillin (10^5 U/L), streptomycin (100 g/L), tricine buffer (1 mmol/L, pH 7.4) and non-essential amino acid solutions (100×) were from GIBCO (Madison, Wis.). Petri dishes were from COSTAR (Cambridge, Mass.). Filters were from Millipore (Bedford, Mass.). The Protein Coomassie Plus Protein Assay kit was purchased from Pierce (Rockford, Ill., USA). ^125Iodine, carrier free, in 100 mmol/L NaOH, was from Perkin Elmer Life Sciences (Boston, Mass.). Sephadex G25 columns (PD10) were from Pharmacia Biotech (Uppsala, Sweden). LDH and MTT kit were from Sigma Diagnostics (Milano-Italy). All other chemicals were of analytical grade from Merck (Darmstadt, Germany). Cells were grown in monolayers in 90 mm-diameter Petri dishes, and maintained at 37° C. in a humidified atmosphere of 95% air, 5% CO2 in MEM supplemented with 10% fetal calf serum (FCS), non essential amino acid solution (1%, v/v), penicillin (10^5 U/L), streptomycin (0.1 g/L), tricine buffer (20 mmol/L, pH 7.4), NaHCO3 (24 mmol/L) and sodium pyruvate (0.11 g/L). […] Cell enzyme leakage was determined by measuring lactate dehydrogenase (LDH) activity, using a kinetic (LDH/LD) diagnostic kit (Sigma Diagnostics). […]

HepG2 cells [3] = assay: Cell enzyme leakage, lactate dehydrogenase (LDH) activity; assay type: cell-based, human; conditions: all concentrations tested; data not shown
Text: as §1

## CCC(C)(C)C(=O)O[C@H]1C[C@@H](C)C=C2C=C[C@H](C)[C@H](CC[C@@H]3C[C@@H](O)CC(=O)O3)[C@H]21 [Simvastatin, simvastatin, reference compound]
HepG2 cells [1]; 1.0 μmol/L
  Degradation %: 179%
  Uptake %: 200%
  Degradation ng125I-LDL/mg cell protein: 143 ± 7.9** ng^125 I-LDL/mg cell protein
  Uptake ng125I-LDL/mg cell protein: 188 ± 10** ng^125 I-LDL/mg cell protein

## FVVNATSN (Glycine max) [LDL-R transcription stimulating peptide deriving from the 7S globulin β chain]
LDL-R
  Increased LDL-R transcription: +148%

B1: 7S α′ subunit: purified full size α′ subunit of the soybean 7S globulin, around 71 kDa, positive control (protein)
chain: VEEEEECEEGQIPRPRPQHPERERQQHGEKEEDEGEQPRPFPFPRPRQPHQEEEHEQKEEHEWHRKEEKHGGKGSEEEQDEREHPRPHQPHQKEEEKHEWQHKQEKHQGKESEEEEEDQDEDEEQDKESQESEGSESQREPRRHKNKNPFHFNSKRFQTLFKNQYGHVRVLQRFNKRSQQLQNLRDYRILEFNSKPNTLLLPHHADADYLIVILNGTAILTLVNNDDRDSYNLQSGDALRVPAGTTFYVVNPDNDENLRMIAGTTFYVVNPDNDENLRMITLAIPVNKPGRFESFFLSSTQAQQSYLQGFSKNILEASYDTKFEEINKVLFGREEGQQQGEERLQESVIVEISKKQIRELSKHAKSSSRKTISSEDKPFNLGSRDPIYSNKLGKLFEITQRNPQLRDLDVFLSVVDMNEGALFLPHFNSKAIVVLVINEGEANIELVGIKEQQQRQQQEEQPLEVRKYRAELSEQDIFVIPAGYPVMVNATSDLNFFAFGINAENNQRNFLAGSKDNVISQIPSQVQELAFPRSAKDIENLIKSQSESYFVDAQPQQKEEGNKGRKGPLSSILRAFY
modifications: Glycine max
notes: purified full size α′ subunit of the soybean 7S globulin, around 71 kDa, positive control
HepG2 cells [1]; 3.5 μmol/L
  Degradation %: 160%
  Uptake %: 164%
  Degradation ng125I-LDL/mg cell protein: 128 ± 4.8* ng^125 I-LDL/mg cell protein
  Uptake ng125I-LDL/mg cell protein: 154 ± 9.1* ng^125 I-LDL/mg cell protein

B2: eα′: recombinant N-terminal extension region of the soybean 7S globulin α′ subunit, expressed in Pichia pastoris, about 20 kDa, SEQ ID NO: 1 (protein)
chain: AVEEEEECEEGQIPRPRPQHPERERQQHGEKEEDEGEQPRPFPFPRPRQPHQEEEHEQKEEHEWHRKEEKHGGKGSEEEQDEREHPRPHQPHQKEEEKHEWQHKQEKHQGKESEEEEEDQDEDEEQDKESQESEGSESQREP
modifications: Glycine max
HepG2 cells [2]
  Cellular toxicity, MTT assay: At no concentration of eα′ was there any evidence of cellular toxicity
HepG2 cells [1]; 0.5 μmol/L
  Degradation %: 125%
  Uptake %: 120%
  Degradation ng125I-LDL/mg cell protein: 100 ± 10* ng^125 I-LDL/mg cell protein
  Uptake ng125I-LDL/mg cell protein: 113 ± 7.1* ng^125 I-LDL/mg cell protein
HepG2 cells [1]; 1.0 μmol/L
  Degradation %: 148%
  Uptake %: 146%
  Degradation ng125I-LDL/mg cell protein: 118 ± 9.3* ng^125 I-LDL/mg cell protein
  Uptake ng125I-LDL/mg cell protein: 138 ± 9.2* ng^125 I-LDL/mg cell protein
HepG2 cells [1]; 2.0 μmol/L
  Degradation %: 196%
  Uptake %: 179%
  Degradation ng125I-LDL/mg cell protein: 157 ± 8.7** ng^125 I-LDL/mg cell protein
  Uptake ng125I-LDL/mg cell protein: 169 ± 6.7** ng^125 I-LDL/mg cell protein
HepG2 cells [3]
  Cellular toxicity, LDH assay: At no concentration of eα′ was there any evidence of cellular toxicity
